B1: HDV Ribozyme (parent)
chain: GGCCGGCAUGGUCCCAGCCUCCUCGCUGGCGCCGGCUGGGCAACAUUCCGAGGGGACCGUCCCCUCGGUAAUGGCGAAUGGGACCCA

The variants in this series derive from B1. As to the kind of experiment: self-cleavage, relative activity (ratio to wild type); higher = more cleavage; co-transcriptional.
For the variant G68C C75U, the self-cleavage worked out at 0.272.

For A70G U79G, the self-cleavage was determined as 0.582. Under A70G U79C stands 0.365. Under A70G U79A stands 0.77; under G67A, 0.967; under G67C, 0.976. Under G67U stands 0.999.

With C66U G67C, the self-cleavage turned out to be 1.16. Under A71C G74U stands 0.789; under G67C U72A, 0.682. With G67C U72C, the self-cleavage is 0.147. Under G68C C85U stands 0.892; under C66U A71U, 0.936. For A71G C75U the value was 0.151; for G74C A77U, 0.104; for G68U G82C, 0.215.

In the case of U72A C86U, the self-cleavage worked out at 0.957. For U72A G73C the value was 0.628; for G68U A70G, 0.95. For A71G G82C, the self-cleavage amounted to 0.151. Under G68U C86G stands 0.945; under U72C G80C, 0.19; under A70G C86U, 1.23.

As to U72G G73A, the self-cleavage was 0.707. G73C G81C: the self-cleavage was 0.0292. Under A70C C85A stands 0.883; under U69G A87U, 1.06. Under G73A A87C stands 0.643; under U72G A77G, 0.178; under U72G A77C, 0.128. On to A71U A77C, for which the self-cleavage came out at 0.287. With G74A G81A, the self-cleavage is 0.213. Take G74A G81U: the self-cleavage was determined as 0.12. On to A71G G81U, for which the self-cleavage came to 0.291. Under A70C A77U stands 0.237; under C66G U69C, 0.898; under G74A C84G, 0.168. For the variant G74A C84A, the self-cleavage was determined as 0.389. As for C66A G76A, the self-cleavage stood at 1.13. For the variant G73U G82A, the self-cleavage turned out to be 0.135. In the case of G67A A70G, the self-cleavage worked out at 0.712. For G67A G74C the value was 0.132.

Regarding G67A G74A, the self-cleavage worked out at 0.403.

G74A: the self-cleavage came to 0.478. Under G74U stands 0.569.

G74C: the self-cleavage was 0.213. Regarding U69G U79C, the self-cleavage came to 0.326.

For the variant U69G U79G, the self-cleavage amounted to 0.895. For G74U A78C the value was 0.201; for U69G A78G, 0.569.

In the case of G73U C86G, the self-cleavage came out at 0.354. For G67A G73U the value was 0.227; for G67A G73C, 0.13. For G67C G76C, the self-cleavage was 1.09. Under C66G G80A stands 0.338; under G74C G80U, 0.127; under U72A C84U, 0.578. As to U72A C84G, the self-cleavage was found to be 0.213. Under A70U G74A stands 0.358; under A70U G74U, 0.499; under G68C G80A, 0.421. Under G68A U72A stands 0.396. For C66U A70G the value was 0.903. Regarding C66U A70U, the self-cleavage was determined as 0.919. For the variant C66U A70C, the self-cleavage was 0.712.

In the case of U69G, the self-cleavage was found to be 0.981.

On to U69C, for which the self-cleavage was 1.02.

Consider U69A, for which the self-cleavage is 0.977. For G67C C86A the value was 0.972; for G67C C86U, 0.979. On to A70U A78C, for which the self-cleavage is 0.0941.

With U69G U72C, the self-cleavage stood at 0.485. Under A71C A87U stands 0.844; under A71C A87C, 0.755. As to C66A U79A, the self-cleavage was 0.696. In the case of G67C A83G, the self-cleavage amounted to 0.597. For the variant A70G A83C, the self-cleavage worked out at 0.344.

On to A70G G80C, for which the self-cleavage amounted to 0.104. Under G68C A71C stands 0.554. Under C66G G74C stands 0.199. Under G67U G81U stands 0.155; under C66G G82U, 0.485; under C66G G82C, 0.0959. With U69A C85U, the self-cleavage came out at 0.831. For C66U C84U the value was 0.683; for C66U C84A, 0.909; for A71G U79C, 0.339.

On to A70C C84G, for which the self-cleavage was 0.323. Under A70G G74C stands 0.107; under G68U A83U, 0.629. For G68U A83G the value was 0.407; for G68U G81C, 0.223.

Consider G73A A77U, for which the self-cleavage stood at 0.189.

Turning to G73A A77G, the self-cleavage was 0.386. For G67C A87G the value was 0.961.

With A71C C84G, the self-cleavage was 0.415. Turning to G73U U79G, the self-cleavage was 0.374. Regarding C66G A77C, the self-cleavage was found to be 0.262. For G74A U79C the value was 0.118. Under U69C C84A stands 1.09; under U69C C84G, 0.875. Under G74A G76A stands 0.443; under G74C C84G, 0.0875. For A71C A77U, the self-cleavage came out at 0.322.

Take A71C A77G: the self-cleavage is 0.569. For A71C A77C the value was 0.0978; for G73U A87G, 0.452; for A71U C75A, 0.0739.

As for U72G U79G, the self-cleavage was determined as 0.332. For U69G C75A the value was 0.107; for G67U A87C, 0.925. For G74C A83G the value was 0.104. Regarding C66A G80C, the self-cleavage was 0.0845. Under A70U A71C stands 0.802; under G67U G73C, 0.437. As for G67A U72C, the self-cleavage stood at 0.539. As to U69A G74C, the self-cleavage is 0.297.

For U69A G74A, the self-cleavage amounted to 0.511.

For G74A C75U, the self-cleavage is 0.141. For U72G A87G the value was 0.546; for G68C A77C, 0.185. Regarding G68A C86G, the self-cleavage is 1.07. As for C66U U79G, the self-cleavage is 0.453. For C66U U79A the value was 0.869; for C66U A77U, 0.501. Under G68A G81U stands 0.124; under C66G C84A, 0.923; under U69G A71G, 1.16. Under A70C A71G stands 0.831; under A70C A71C, 0.762.

As for A70U U72C, the self-cleavage worked out at 0.653. With G67U C75A, the self-cleavage was 0.0426. Under G67U A83G stands 0.412. G74A A83U: the self-cleavage came to 0.272. For G67U U72C the value was 0.53; for G67A C84U, 0.658. As to G67A C84G, the self-cleavage was found to be 0.369. As for G67A C84A, the self-cleavage was found to be 0.831. For the variant A70C A83U, the self-cleavage was 0.475.

For G68A U69C, the self-cleavage was determined as 0.782. For A70U C84A the value was 0.969; for U69A G81A, 0.425; for G68A C84U, 0.872. Under G68A C84G stands 0.475; under G73U A83U, 0.0462; under A71C C85U, 0.875.

As to A71G G80C, the self-cleavage stood at 0.271. With U69A G80A, the self-cleavage worked out at 0.434.

Take A70G C84U: the self-cleavage was found to be 0.743. Under U69A G82C stands 0.554; under G73A G81C, 0.425; under G73A G81U, 0.18. Regarding G73C G80C, the self-cleavage came out at 0.109.

For U72C G81U, the self-cleavage turned out to be 0.148. For G68C A78C the value was 0.237; for U69G C85U, 0.811; for G68U A87C, 1.01. In the case of U72C A77G, the self-cleavage was 0.229. Under U72C A77U stands 0.285; under C66U U72A, 0.525; under C66U U72C, 0.518.

On to G68C C84U, for which the self-cleavage was determined as 0.796. Under U69C A87G stands 1.1; under G68U U79G, 0.374; under G68U U79A, 0.928. A70G U72G: the self-cleavage came out at 0.582.

Take U72A G74A: the self-cleavage stood at 0.373.

The values are drawn from the RNAGym collection of RNA variant scans (doi:10.7554/elife.80360).
